Measurements published in article PMC5462994.

What was measured:
[1] = biological target: Recombinant M.tb H37Rv GAPDH, wild type (Mycobacterium tuberculosis H37Rv) (UniProt P9WN83); assay: ELISA; solid phase binding assay: 2 ug/well GAPDH coated on polystyrene wells in PBS pH 7.4; 7.5-1,000 nM biotinylated Lf in PBS with 1% fish skin gelatin, 25°C, 2 h; detected with anti-biotin; one-site specific binding fit
[2] = biological target: Transferrin (Homo sapiens) (UniProt P02787); settings: cited from earlier work
UniProt P02787, sequence (P02787 20-698): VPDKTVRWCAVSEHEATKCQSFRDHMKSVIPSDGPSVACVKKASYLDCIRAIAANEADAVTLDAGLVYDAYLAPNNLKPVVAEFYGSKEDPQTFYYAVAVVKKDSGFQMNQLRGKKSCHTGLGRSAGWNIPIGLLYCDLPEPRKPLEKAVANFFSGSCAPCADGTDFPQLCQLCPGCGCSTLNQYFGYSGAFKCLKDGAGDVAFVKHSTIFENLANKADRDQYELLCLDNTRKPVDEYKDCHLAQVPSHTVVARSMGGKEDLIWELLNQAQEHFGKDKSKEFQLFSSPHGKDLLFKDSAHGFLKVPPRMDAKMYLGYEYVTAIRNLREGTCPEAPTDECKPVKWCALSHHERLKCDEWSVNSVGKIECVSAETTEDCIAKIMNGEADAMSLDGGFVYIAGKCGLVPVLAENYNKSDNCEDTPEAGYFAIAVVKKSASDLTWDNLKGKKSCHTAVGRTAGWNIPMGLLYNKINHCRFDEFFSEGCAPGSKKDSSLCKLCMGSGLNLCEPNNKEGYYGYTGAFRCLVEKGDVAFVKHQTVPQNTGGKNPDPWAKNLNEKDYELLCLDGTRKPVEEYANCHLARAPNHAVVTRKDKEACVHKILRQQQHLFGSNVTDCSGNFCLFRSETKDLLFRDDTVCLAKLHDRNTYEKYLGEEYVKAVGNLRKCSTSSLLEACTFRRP

GAPDH, sequence (P9WN83 whole entry): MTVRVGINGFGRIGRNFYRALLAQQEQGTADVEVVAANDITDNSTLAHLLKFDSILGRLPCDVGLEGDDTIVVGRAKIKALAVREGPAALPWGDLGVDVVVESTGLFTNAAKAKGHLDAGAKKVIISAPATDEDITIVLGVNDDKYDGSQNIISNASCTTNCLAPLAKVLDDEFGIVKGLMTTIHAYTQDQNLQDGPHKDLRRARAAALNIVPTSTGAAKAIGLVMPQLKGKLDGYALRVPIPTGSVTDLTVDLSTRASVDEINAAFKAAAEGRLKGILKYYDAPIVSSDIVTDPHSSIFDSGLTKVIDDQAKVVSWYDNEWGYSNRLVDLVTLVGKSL

With “Biotinylated human lactoferrin (natural protein)” the Kd [1] was 31.7 nM.

In the case of GAPDH (from UniProt P9WN83), the Kd [2] is given as 160 nM.
